Source: paper PMC9243169

What was measured:
LANTVATL peptide = target: T1, LANTVATL peptide; experiment: size-exclusion chromatography of in vitro assembled heavy chain/β2m/ligand complex; conditions: chain shown with the change; parent: est. 160; read off a plot
T1 chain: LANTVATL

[1] = target: T2, N-myristoylated 4-mer lipopeptide Myr-GAAL; experiment: as above; conditions: chain shown with the change; parent: est. 160; read off a plot
T2 chain: GAAL

B1: HLA-C∗14:02 heavy chain, ectodomain (soluble form) S9Y (protein)
chain: AGSHSMRYFYTSVSRPGRGEPRFIAVGYVDDTQFVRFDSDAASPRGEPRAPWVEQEGPEYWDRETQKYKRQAQTDRVSLRNLRGYYNQSEAGSHTLQWMFGCDLGPDGRLLRGYDQSAYDGKDYIALNEDLRSWTAADTAAQITQRKWEAAREAEQRRAYLEGTCVEWLRRYLENGKETLQRAEHPKTHVTHHPVSDHEATLRCWALGFYPAEITLTWQWDGEDQTQDTELVETRPAGDGTFQKWAAVVVPSGEEQRYTCHVQHEGLPEPLTLRWEP
**Q.** What does the source list for B1?
**A.** response (LANTVATL peptide): 180 mAU; response [1]: 30 mAU
